Source: PMC7064540

B1: Gpr176: N-ter mut (protein)
parent chain: MGHNSSWVSPNTSHPRNTSGAEAGANLSAFGELSEAQLYRQFTTTVQVVIFIGSLLGNFMVLWSTCRTTVFKSVTNRFIKNLACSGICASVVCVPFDIILSSSPHCCWWIYTMLFCKVLKFLHKVFCSVTVLSFPAIALDRYYSVLYPLERKISDAKSRELVMYIWAHAVVASVPVFAVTNVADIYAMSTCTEVWSNSLGHLVYVLIYNVTTVIVPVAVVFLFLILIRRALSASQKKKVIIAALRTPQNTISIPYASQREAELHATLLSMVTVFILCSVPYATLVVYQTVLNVPNTSVFLLLTAIWLPKVSLLANPVLFLTVNKSVRKCLVGTLVQLHHRYSRRNVVSTGSGVAEPSLEPSMRSGSQLLEMFHIGQQQIFKPSEDEEESEAKYLGSADFQAKEVLTSCPEGEQEPPQLAPSVPPPGTVDSEPRVSPVAPMESGIFPDKYSLQFGFGPFELPPQWLSETRNSKKRLLPPLGNTPEELIQTKVPRVNRVERKMSRNNKVSIFPKVDS
B2: Gpr176: N-ter/ECL3 (protein)
parent chain: MGHNSSWVSPNTSHPRNTSGAEAGANLSAFGELSEAQLYRQFTTTVQVVIFIGSLLGNFMVLWSTCRTTVFKSVTNRFIKNLACSGICASVVCVPFDIILSSSPHCCWWIYTMLFCKVLKFLHKVFCSVTVLSFPAIALDRYYSVLYPLERKISDAKSRELVMYIWAHAVVASVPVFAVTNVADIYAMSTCTEVWSNSLGHLVYVLIYNVTTVIVPVAVVFLFLILIRRALSASQKKKVIIAALRTPQNTISIPYASQREAELHATLLSMVTVFILCSVPYATLVVYQTVLNVPNTSVFLLLTAIWLPKVSLLANPVLFLTVNKSVRKCLVGTLVQLHHRYSRRNVVSTGSGVAEPSLEPSMRSGSQLLEMFHIGQQQIFKPSEDEEESEAKYLGSADFQAKEVLTSCPEGEQEPPQLAPSVPPPGTVDSEPRVSPVAPMESGIFPDKYSLQFGFGPFELPPQWLSETRNSKKRLLPPLGNTPEELIQTKVPRVNRVERKMSRNNKVSIFPKVDS
B3: Gpr176: PNGase F (protein)
parent chain: MGHNSSWVSPNTSHPRNTSGAEAGANLSAFGELSEAQLYRQFTTTVQVVIFIGSLLGNFMVLWSTCRTTVFKSVTNRFIKNLACSGICASVVCVPFDIILSSSPHCCWWIYTMLFCKVLKFLHKVFCSVTVLSFPAIALDRYYSVLYPLERKISDAKSRELVMYIWAHAVVASVPVFAVTNVADIYAMSTCTEVWSNSLGHLVYVLIYNVTTVIVPVAVVFLFLILIRRALSASQKKKVIIAALRTPQNTISIPYASQREAELHATLLSMVTVFILCSVPYATLVVYQTVLNVPNTSVFLLLTAIWLPKVSLLANPVLFLTVNKSVRKCLVGTLVQLHHRYSRRNVVSTGSGVAEPSLEPSMRSGSQLLEMFHIGQQQIFKPSEDEEESEAKYLGSADFQAKEVLTSCPEGEQEPPQLAPSVPPPGTVDSEPRVSPVAPMESGIFPDKYSLQFGFGPFELPPQWLSETRNSKKRLLPPLGNTPEELIQTKVPRVNRVERKMSRNNKVSIFPKVDS
B4: hGPR176: N-ter mut (N4Q;N11Q;N17Q;N27Q) (protein)
parent chain: MGHNGSWISPNASEPHNASGAEAAGVNRSALGEFGEAQLYRQFTTTVQVVIFIGSLLGNFMVLWSTCRTTVFKSVTNRFIKNLACSGICASLVCVPFDIILSTSPHCCWWIYTMLFCKVVKFLHKVFCSVTILSFPAIALDRYYSVLYPLERKISDAKSRELVMYIWAHAVVASVPVFAVTNVADIYATSTCTEVWSNSLGHLVYVLVYNITTVIVPVVVVFLFLILIRRALSASQKKKVIIAALRTPQNTISIPYASQREAELHATLLSMVMVFILCSVPYATLVVYQTVLNVPDTSVFLLLTAVWLPKVSLLANPVLFLTVNKSVRKCLIGTLVQLHHRYSRRNVVSTGSGMAEASLEPSIRSGSQLLEMFHIGQQQIFKPTEDEEESEAKYIGSADFQAKEIFSTCLEGEQGPQFAPSAPPLSTVDSVSQVAPAAPVEPETFPDKYSLQFGFGPFELPPQWLSETRNSKKRLLPPLGNTPEELIQTKVPKVGRVERKMSRNNKVSIFPKVDS
B5: hGPR176: S13G (protein)
parent chain: MGHNGSWISPNASEPHNASGAEAAGVNRSALGEFGEAQLYRQFTTTVQVVIFIGSLLGNFMVLWSTCRTTVFKSVTNRFIKNLACSGICASLVCVPFDIILSTSPHCCWWIYTMLFCKVVKFLHKVFCSVTILSFPAIALDRYYSVLYPLERKISDAKSRELVMYIWAHAVVASVPVFAVTNVADIYATSTCTEVWSNSLGHLVYVLVYNITTVIVPVVVVFLFLILIRRALSASQKKKVIIAALRTPQNTISIPYASQREAELHATLLSMVMVFILCSVPYATLVVYQTVLNVPDTSVFLLLTAVWLPKVSLLANPVLFLTVNKSVRKCLIGTLVQLHHRYSRRNVVSTGSGMAEASLEPSIRSGSQLLEMFHIGQQQIFKPTEDEEESEAKYIGSADFQAKEIFSTCLEGEQGPQFAPSAPPLSTVDSVSQVAPAAPVEPETFPDKYSLQFGFGPFELPPQWLSETRNSKKRLLPPLGNTPEELIQTKVPKVGRVERKMSRNNKVSIFPKVDS
B6: hGPR176: N4D (protein)
parent chain: MGHNGSWISPNASEPHNASGAEAAGVNRSALGEFGEAQLYRQFTTTVQVVIFIGSLLGNFMVLWSTCRTTVFKSVTNRFIKNLACSGICASLVCVPFDIILSTSPHCCWWIYTMLFCKVVKFLHKVFCSVTILSFPAIALDRYYSVLYPLERKISDAKSRELVMYIWAHAVVASVPVFAVTNVADIYATSTCTEVWSNSLGHLVYVLVYNITTVIVPVVVVFLFLILIRRALSASQKKKVIIAALRTPQNTISIPYASQREAELHATLLSMVMVFILCSVPYATLVVYQTVLNVPDTSVFLLLTAVWLPKVSLLANPVLFLTVNKSVRKCLIGTLVQLHHRYSRRNVVSTGSGMAEASLEPSIRSGSQLLEMFHIGQQQIFKPTEDEEESEAKYIGSADFQAKEIFSTCLEGEQGPQFAPSAPPLSTVDSVSQVAPAAPVEPETFPDKYSLQFGFGPFELPPQWLSETRNSKKRLLPPLGNTPEELIQTKVPKVGRVERKMSRNNKVSIFPKVDS
B7: hGPR176: N17K (protein)
parent chain: MGHNGSWISPNASEPHNASGAEAAGVNRSALGEFGEAQLYRQFTTTVQVVIFIGSLLGNFMVLWSTCRTTVFKSVTNRFIKNLACSGICASLVCVPFDIILSTSPHCCWWIYTMLFCKVVKFLHKVFCSVTILSFPAIALDRYYSVLYPLERKISDAKSRELVMYIWAHAVVASVPVFAVTNVADIYATSTCTEVWSNSLGHLVYVLVYNITTVIVPVVVVFLFLILIRRALSASQKKKVIIAALRTPQNTISIPYASQREAELHATLLSMVMVFILCSVPYATLVVYQTVLNVPDTSVFLLLTAVWLPKVSLLANPVLFLTVNKSVRKCLIGTLVQLHHRYSRRNVVSTGSGMAEASLEPSIRSGSQLLEMFHIGQQQIFKPTEDEEESEAKYIGSADFQAKEIFSTCLEGEQGPQFAPSAPPLSTVDSVSQVAPAAPVEPETFPDKYSLQFGFGPFELPPQWLSETRNSKKRLLPPLGNTPEELIQTKVPKVGRVERKMSRNNKVSIFPKVDS
B8: hGPR176: N4S (protein)
parent chain: MGHNGSWISPNASEPHNASGAEAAGVNRSALGEFGEAQLYRQFTTTVQVVIFIGSLLGNFMVLWSTCRTTVFKSVTNRFIKNLACSGICASLVCVPFDIILSTSPHCCWWIYTMLFCKVVKFLHKVFCSVTILSFPAIALDRYYSVLYPLERKISDAKSRELVMYIWAHAVVASVPVFAVTNVADIYATSTCTEVWSNSLGHLVYVLVYNITTVIVPVVVVFLFLILIRRALSASQKKKVIIAALRTPQNTISIPYASQREAELHATLLSMVMVFILCSVPYATLVVYQTVLNVPDTSVFLLLTAVWLPKVSLLANPVLFLTVNKSVRKCLIGTLVQLHHRYSRRNVVSTGSGMAEASLEPSIRSGSQLLEMFHIGQQQIFKPTEDEEESEAKYIGSADFQAKEIFSTCLEGEQGPQFAPSAPPLSTVDSVSQVAPAAPVEPETFPDKYSLQFGFGPFELPPQWLSETRNSKKRLLPPLGNTPEELIQTKVPKVGRVERKMSRNNKVSIFPKVDS
B9: hGPR176: N17T (protein)
parent chain: MGHNGSWISPNASEPHNASGAEAAGVNRSALGEFGEAQLYRQFTTTVQVVIFIGSLLGNFMVLWSTCRTTVFKSVTNRFIKNLACSGICASLVCVPFDIILSTSPHCCWWIYTMLFCKVVKFLHKVFCSVTILSFPAIALDRYYSVLYPLERKISDAKSRELVMYIWAHAVVASVPVFAVTNVADIYATSTCTEVWSNSLGHLVYVLVYNITTVIVPVVVVFLFLILIRRALSASQKKKVIIAALRTPQNTISIPYASQREAELHATLLSMVMVFILCSVPYATLVVYQTVLNVPDTSVFLLLTAVWLPKVSLLANPVLFLTVNKSVRKCLIGTLVQLHHRYSRRNVVSTGSGMAEASLEPSIRSGSQLLEMFHIGQQQIFKPTEDEEESEAKYIGSADFQAKEIFSTCLEGEQGPQFAPSAPPLSTVDSVSQVAPAAPVEPETFPDKYSLQFGFGPFELPPQWLSETRNSKKRLLPPLGNTPEELIQTKVPKVGRVERKMSRNNKVSIFPKVDS

Columns and labels:
[1] = confocal GFP imaging with ER-Tracker; details: glycan lost; control: wild type Gpr176-GFP
[2] = immunoblot after MG132 or bafilomycin A1, 6 h; details: glycan lost; control: wild type Gpr176-GFP
[3] = immunoblot densitometry, Dox-induced Flp-In TREx293; details: glycan lost; for expression_or_secretion, percent_of_wt: control: wild type; for expression_or_secretion: control: wild type hGPR176
[4] = immunoblot of PNGase F-treated live cells; details: glycan lost; control: cells without PNGase F

Row | Protein | expression_or_secretion [3] | other results
1 | B1 | – | localisation_or_trafficking [1]: changes; degradation_or_half_life [2]: decreases; expression_or_secretion, percent_of_wt [3]: decreases
2 | B2 | – | expression_or_secretion, percent_of_wt [3]: decreases
3 | B3 | – | expression_or_secretion [4]: no change
4 | B4 | decreases | –
5 | B5 | decreases | –
6 | B6 | no change | –
7 | B7 | no change | –
8 | B8 | decreases | –
9 | B9 | no change | –
